Assay [1] deals with T1, human tau fibrils (HT40, 2N4R) (Homo sapiens, UniProt P10636-8). The experiment in a line: flow cytometry on fibril-coated beads. For orientation: In flow cytometry, cells or beads pass a laser one at a time.
In another assay the target is human 0N3R tau fibrils (Homo sapiens, UniProt P10636-2). The experiment in a line: far-Western, overlay or dot blot.
Assay [2] has as its target T1, human tau fibrils (HT40, 2N4R). The experiment in a line: flow cytometry on fibril-coated beads, competition with monomer.
Assay [3] deals with human α-synuclein fibrils (Homo sapiens (Human)., UniProt P37840). The assay is described as above.

Numbering of substitutions follows the chain as printed.

B1: ATA1 (scFv, V domains shown)
VH: QVQLQQSGPGLLKPSETLSLTCVISGDSVSSNSATWNWIRQSPSRGLEWLGRTYFRSKWYNDYAVSVKSRITINPDTSKNQFSLQLNSATPEDTAVYYCARQMDEGVGFDFWGQGTLVTVSS
VL: EIVLTQSPATLSLSPGERATLSCRASQSVSSYLAWYQQKPGQAPRLLIYDASNRATGIPARFSGSGSGTDFTLTISSLEPEDFAVYYCQQRSNWPPTFGQGTRLEIK
B1: the EC50 – broadly, the concentration that produces a half-maximal response – in assay [1] amounted to 6.3 nM.

B2: ATA1.459.3 (scFv, V domains shown)
VH: B1 VH with A34V, S57R, K58R, E105K
VL: B1 VL with S92H
On to B2, for which the binding result with human 0N3R tau fibrils is on record as “binds”.

B3: ATA1.458.3 (scFv, V domains shown)
VH: B1 VH with S31T, S33D, A34V, S57R, V65R
VL: B1 VL with S92H
Take B3: the binding result in assay [2] is “binds”.

B4: ATA1.458.5 (scFv, V domains shown)
VH: B1 VH with S33F, A34V, S57R
VL: B1 VL with S92H, N93S
Regarding B4, the binding result in assay [2] is reported as “binds”.

B5: H2.3 (antibody, V domains shown)
VH: QVQLQQSGPGLVKPSQTLSLTCAISGDSVSSHSASWNWIRQSPSRGLEWLGRTYYRGKWKTDYAVSVKSRIIINPDTSKNQFSLQLDSVTPEDTAVYFCTRATRGASDYWGQGTLVTVSS
VL: not shown
For the molecule B5, in assay [3], the binding result is listed as “binds”.

B6: H2.4 (antibody, V domains shown)
VH: B5 VH with G57S, K60H, T61N, V65A, S69G
VL: not shown
As for B6, in assay [3], the binding result is given as “binds”.
